From PMC3257281
pKd: −log10 of the molar value.

Assays:
[1] = biological target: rabbit intestinal mucin (rabbit); assay: ELISA
[2] = biological target: rabbit intestinal mucin (rabbit)
[3] = biological target: rabbit intestinal mucin (rabbit); assay: binding to mucin-coupled Sepharose resin, Scatchard plot; rabbit mucin coupled to NHS-activated sepharose; different amounts of GbpA protein added to 400 µl resin, 2 h, room temperature; unbound protein measured after centrifugation; Kd from bound vs. bound/free
[4] = biological target: rabbit intestinal mucin (rabbit); assay: binding to mucin-coupled Sepharose resin, Scatchard plot

Substance	pKd [1]	inhibition of binding of biotinylated wild type V. cholerae N16961 to mucin-coated wells pre-treated with increasing concentrations of the protein; value at saturation [2] [%]	pKd [3]	pKd [4]
GbpA(Y61A), full length GbpA with tyrosine 61 changed to alanine (from UniProt Q9KLD5 24-485) (natural protein)	4.83	83	4.85	–
GbpAD1, GbpA domain 1 (residues 24-203) (from UniProt Q9KLD5 24-203) (domain or fragment)	5.06	–	–	–
GbpAD3, GbpA domain 3 (domain or fragment)	4.12	–	–	–
GbpA_(D1–3), GbpA domains 1 to 3 (residues 24-414) (from UniProt Q9KLD5 24-414) (domain or fragment)	4.88	–	4.90	–
GbpAfl, mature full-length GlcNAc binding protein A (residues 24-485) (from UniProt Q9KLD5 24-485) (natural protein)	5.11	83	–	5.03
